{"source": "patent US7432342B2", "about": "“Kinase anchor protein muteins, peptides thereof and related documents” (Sequenom, Inc., priority 2002, dated 2008)", "molecules": {"B1": {"name": "Ile (646) variant: D-AKAP2 AKB domain with Ile at amino acid 646 (SEQ ID NO:64), tested as GST fusion or mitochondria-targeted fusion construct (protein, listed as Homo sapiens)", "chain": "MRGAGPSPRQSPRTLRPDPGPAMSFFRRKVKGKEQEKTSDVKSIKASISVHSPQKSTKNHALLEAAGPSHVAINAISANMDSFSSSRTATLKKQPSHMEAAHFGDLGRSCLDYQTQETKSSLSKTLEQVLHDTIVLPYFIQFMELRRMEHLVKFWLEAESFHSTTWSRIRAHSLNTMKQSSLAEPVSPSKKHETTASFLTDSLDKRLEDSGSAQLFMTHSEGIDLNNRTNSTQNHLLLSQECDSAHSLRLEMARAGTHQVSMETQESSSTLTVASRNSPASPLKELSGKLMKSIEQDAVNTFTKYISPDAAKPIPITEAMRNDIIARICGEDGQVDPNCFVLAQSIVFSAMEQEHFSEFLRSHHFCKYQIEVLTSGTVYLADILFCESALFYFSEYMEKEDAVNILQFWLAADNFQSQLAAKKGQYDGQEAQNDAMILYDKYFSLQATHPLGFDDVVRLEIESNICREGGPLPNCFTTPLRQAWTTMEKVFLPGFLSSNLYYKYLNDLIHSVRGDEFLGGNVSPTAPGSVGPPDESHPGSSDSSASQSSVKKASIKILKNFDEAIIVDAASLDPESLYQRTYAGKMTFGRVSDLGQFIRESEPEPDVRKSKGSMFSQAMKKWVQGNTDEAQEELAWKIAKMIVSDIMQQAQYDQPLEKSTKL", "modifications": "GST or mitochondria-targeting fusion"}}, "biological_target": "T1, RIα-D/D-GFP (Bos taurus, UniProt P00514)", "T1 construct": "The dimerization/docking (D/D) domain of RIα and full-length RIIα were each fused with green fluorescent protein (GFP); expressed in transfected cells; host or cells: 10T(1/2) cells", "T1 sequence (P00514 2-135 limits assumed)": "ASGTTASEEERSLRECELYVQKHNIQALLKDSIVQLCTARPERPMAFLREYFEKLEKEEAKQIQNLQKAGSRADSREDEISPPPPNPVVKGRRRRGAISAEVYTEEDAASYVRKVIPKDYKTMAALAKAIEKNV", "assay": "Co-localization of PKA regulatory domain with mitochondria-targeted AKB domain in 10T(1/2) cells (Example 3)", "format": "cell-based", "settings": "C-terminal 156 residues of D-AKAP2 fused to D-AKAP1 mitochondrial anchoring domain", "from_the_text": "The 30 amino acid mitochondrial anchoring domain of D-AKAP1 (Chen et al. (1997) J. Biol. Chem., 272:15247-57; and Huang et al. (1997) J. Biol. Chem., 272:8057-8064) was fused to the C-terminal 156 residues of mouse (amino acids 217-372 of SEQ ID NO:55) and human (amino acids 507-662 of SEQ ID NO:64) D-AKAP2, respectively, followed by a Flag-tag and subcloned into pcDNA4 (Invitrogen, Carlsbad, Calif.). The dimerization/docking (D/D) domain of RIα and full-length RIIα were each fused with green fluorescent protein (GFP) and cloned into pEGFPN1 (Clontech, Palo Alto, Calif.). […] The AKB domain was detected by immuno-staining with monoclonal antibodies against the Flag-tag (Kodak, Rochester, N.Y.) followed by rhodamine-conjugated secondary antibody (Jackson Lab, Bar Harbor, Me.). […]\nIn this assay, the AKB domain within the C-terminal 156 residues of D-AKAP2 from mouse (Val) and human (Ile) was fused to the mitochondrial anchoring domain from D-AKAP1 and tethered to the outer mitochondrial membrane (Chen et al. (1997) J. Biol. Chem., 272:15247-15257; and Huang et al. (1997) J. Biol. Chem., 272:8057-8064). The binding of the AKB domain with the PKA regulatory domains was detected as the co-transfected PKA regulatory domains co-localized to the mitochondria. […]", "data": [{"molecule": "B1", "values": [{"measurement": "targeting of RIα to the mitochondria", "result": "decrease in mitochondrial localization"}, {"measurement": "targeting of RIα to the mitochondria", "setting": "listed as lie variant", "result": "unable to target RIα"}]}]}
